Measurements taken from patent publication US20220251151A1.

Key:
Test in all cases: cell-based or functional assay
[1] = target: human Kv1.6 potassium channel (α-subunit) (human) (UniProt P17658)
[2] = target: human Kv1.2 potassium channel (α-subunit) (human) (UniProt P16389)
[3] = target: human Kv1.3 potassium channel (potassium voltage-gated channel subfamily A member 3, α-subunit) (human) (UniProt P22001)
[4] = target: human Kv1.1 potassium channel (α-subunit) (human) (UniProt Q09470)
human Kv1.1 potassium channel (α-subunit) (human), sequence (Q09470 whole entry): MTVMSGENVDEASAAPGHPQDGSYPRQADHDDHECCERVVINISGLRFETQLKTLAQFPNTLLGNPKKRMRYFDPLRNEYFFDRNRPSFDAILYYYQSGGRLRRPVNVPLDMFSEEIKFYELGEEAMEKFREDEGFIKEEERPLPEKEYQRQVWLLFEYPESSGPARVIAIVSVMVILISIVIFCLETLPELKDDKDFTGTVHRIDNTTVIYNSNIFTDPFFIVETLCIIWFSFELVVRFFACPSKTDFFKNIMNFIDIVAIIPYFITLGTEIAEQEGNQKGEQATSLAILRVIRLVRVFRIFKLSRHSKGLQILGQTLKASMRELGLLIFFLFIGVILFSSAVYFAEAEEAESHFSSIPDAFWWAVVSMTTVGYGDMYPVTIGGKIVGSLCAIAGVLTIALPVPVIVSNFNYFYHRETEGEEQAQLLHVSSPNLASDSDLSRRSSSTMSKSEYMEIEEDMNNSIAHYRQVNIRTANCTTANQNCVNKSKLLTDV

human Kv1.2 potassium channel (α-subunit) (human), sequence (P16389 whole entry): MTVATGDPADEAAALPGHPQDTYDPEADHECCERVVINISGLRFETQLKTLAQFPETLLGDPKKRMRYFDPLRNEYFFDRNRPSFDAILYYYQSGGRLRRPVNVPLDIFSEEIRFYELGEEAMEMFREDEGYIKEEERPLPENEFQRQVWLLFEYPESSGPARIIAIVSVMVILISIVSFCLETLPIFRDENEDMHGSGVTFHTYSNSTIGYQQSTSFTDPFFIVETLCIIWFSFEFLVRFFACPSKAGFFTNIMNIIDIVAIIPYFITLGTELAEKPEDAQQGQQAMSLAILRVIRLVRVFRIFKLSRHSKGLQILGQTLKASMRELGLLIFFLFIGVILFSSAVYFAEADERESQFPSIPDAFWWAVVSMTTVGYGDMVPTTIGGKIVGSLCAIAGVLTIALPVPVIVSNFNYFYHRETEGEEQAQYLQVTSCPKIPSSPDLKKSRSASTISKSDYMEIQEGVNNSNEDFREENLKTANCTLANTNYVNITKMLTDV
human Kv1.6 potassium channel (α-subunit) (human), sequence (P17658 whole entry): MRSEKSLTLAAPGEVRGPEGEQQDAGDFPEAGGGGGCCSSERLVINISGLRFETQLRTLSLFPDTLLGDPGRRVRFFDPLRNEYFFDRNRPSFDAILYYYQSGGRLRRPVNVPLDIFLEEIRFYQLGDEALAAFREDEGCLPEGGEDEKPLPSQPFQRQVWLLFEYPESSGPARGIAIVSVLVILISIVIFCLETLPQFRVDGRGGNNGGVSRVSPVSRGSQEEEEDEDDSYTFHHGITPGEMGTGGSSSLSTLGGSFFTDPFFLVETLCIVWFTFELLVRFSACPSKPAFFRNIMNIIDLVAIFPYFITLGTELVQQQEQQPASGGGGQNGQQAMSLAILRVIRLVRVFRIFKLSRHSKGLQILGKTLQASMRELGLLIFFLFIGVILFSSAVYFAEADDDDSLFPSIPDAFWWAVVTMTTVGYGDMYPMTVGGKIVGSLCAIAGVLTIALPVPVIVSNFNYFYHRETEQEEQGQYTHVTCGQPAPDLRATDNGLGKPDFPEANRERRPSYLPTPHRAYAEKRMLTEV
human Kv1.3 potassium channel (potassium voltage-gated channel subfamily A member 3, α-subunit) (human), sequence (P22001 whole entry): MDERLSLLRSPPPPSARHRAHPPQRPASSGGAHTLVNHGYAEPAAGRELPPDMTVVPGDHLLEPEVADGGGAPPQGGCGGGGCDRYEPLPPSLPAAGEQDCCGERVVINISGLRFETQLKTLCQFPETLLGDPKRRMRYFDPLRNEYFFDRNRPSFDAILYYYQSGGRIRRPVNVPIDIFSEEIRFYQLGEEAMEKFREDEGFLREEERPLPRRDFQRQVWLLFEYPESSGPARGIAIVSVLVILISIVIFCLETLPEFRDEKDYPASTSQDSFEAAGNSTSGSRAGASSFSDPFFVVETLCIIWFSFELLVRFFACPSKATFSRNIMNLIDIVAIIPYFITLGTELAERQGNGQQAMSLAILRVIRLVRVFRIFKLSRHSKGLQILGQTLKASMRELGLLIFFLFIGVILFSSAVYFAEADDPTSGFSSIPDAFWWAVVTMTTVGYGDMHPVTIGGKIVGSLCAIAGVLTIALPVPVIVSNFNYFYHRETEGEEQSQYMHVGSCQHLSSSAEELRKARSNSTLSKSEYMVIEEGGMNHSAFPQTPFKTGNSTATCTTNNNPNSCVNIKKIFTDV

Substance | Potency IC50 (patch clamp) [1] | Selectivity Kv1.6/Kv1.3 [1] | Potency IC50 (patch clamp) [2] | Selectivity Kv1.2/Kv1.3 [2] | Potency IC50 (patch clamp) [3] | Potency IC50 (patch clamp) [4] | Selectivity Kv1.1/Kv1.3 [4]
Moka1 (peptide) | > 3000 nM | > 300 | 275 nM | 31 | 9 nM | > 3000 nM | > 300
ShK (peptide) | 0.19 nM | – | 11 nM | – | 0.017 nM | – | –
Vm24 (peptide) | 21 nM | 139 | 4.7 nM | 31 | 0.15 nM | 0.097 nM | 0.65
